Measurements reported in patent US20230374084A1, “POTENT AND SELECTIVE INHIBITORS OF NAV1.7” (ALDEVRON, LLC, priority 2020, published 2023).
Marks after values point to notes of the source that are not given here.

Assays:
Type in all cases: cell-based
[1] = molecular target: T1, NaV1.7 (Homo sapiens, UniProt Q15858); assay: Patch-clamp electrophysiology of HEK-NaV1.7 stable cells; conditions: HEK-NaV1.7 cells, 500 nM peptide
T1 construct: expressed in transfected cells; host or cells: HEK293 (human embryonic kidney) cells stably expressing NaV1.7
Description: HEK-NaV1.7 stable cell lines were plated at low density on glass cover slips for 3-4 hours and subsequently transferred to the recording chamber. Recordings were performed at room temperature (20-22° C.) […] using a MultiClamp 700B amplifier (Molecular Devices, Sunnyvale, CA). The composition of recording solutions consisted of the following salts: extracellular (mM): 140 NaCl, 3 KCl, 1 MgCl2, 1 CaCl2), 10 HEPES, 10 glucose, pH 7.3; intracellular (mM): 130 CH3O3SCs, 1 EGTA, 10 NaCl, 10 HEPES, pH 7.3. Membrane capacitance and series resistance were estimated by the dial settings on the amplifier and compensated for electronically by 70-80%. Data were acquired at 20 kHz and filtered at 5 kHz prior to digitization and storage. All experimental parameters were controlled by Clampex 9.2 software (Molecular Devices) and interfaced to the electrophysiological equipment using a Digidata 1200 analog-digital interface (Molecular Devices). Voltage-dependent inward currents for HEK-NaV1.7 cells were evoked by depolarizations to test potentials between −100 mV and +60 mV from a holding potential of −70 mV followed by a voltage pre-step pulse of −120 mV (NaV1.7). Steady-state (fast) inactivation of NaV channels was measured with a paired-pulse protocol. From the holding potential, cells were stepped to varying test potentials between −120 mv (Nar 1.7) and +20 mV (pre-pulse) prior to a test pulse to −20 mV.
Current densities were obtained by dividing Na+ current (INa) amplitude by membrane capacitance. Current-voltage relationships were generated by plotting current density as a function of the […]. Conductance (GNa) was calculated by the following equation:
GNa=INa/(Vm−Erev) • where INa is the current amplitude at voltage Vm, and Erev is the Na^+ reversal potential.
To test whether given peptides (10 in total, listed below) had modulatory effects on NaV1.7-mediated Na^+ currents, we used patch-clamp electrophysiology of human embryonic kidney cells stably expressing NaV1.7 (HEK-NaV1.7).

[2] = molecular target: T2, NaV1.6 (Homo sapiens, UniProt Q9UQD0); assay: Whole-cell patch-clamp electrophysiology in HEK293 cells stably expressing NaV1.6 (HEK-NaV1.6); conditions: for effect on NaV1.6 currents / Peak current density, Nav1.6 (Treatment): HEK-NaV1.6 cells; for effect on NaV1.6 currents: 500 nM peptide vs control; for Peak current density, Nav1.6 (Treatment): mean ± SEM (n)
T2 construct: expressed in transfected cells; host or cells: HEK293 cells stably expressing NaV1.6
Description: HEK-NaV1.6 cells were plated at low density on glass cover slips for 3-4 hours and subsequently transferred to the recording chamber. Recordings were performed at room temperature (20-22° C.) after 48 h to thaw them using a MultiClamp 200B and 700B amplifier (Molecular Devices, Sunnyvale, CA). The composition of recording solutions consisted of the following salts; extracellular (mM): 140 NaCl, 3 KCl, 1 MgCl2, 1 CaCl2), 10 HEPES, 10 glucose, pH 7.3; intracellular (mM): 130 CH3O3SCs, 1 EGTA, 10 NaCl, 10 HEPES, pH 7.3. Membrane capacitance and series resistance were estimated by the dial settings on the amplifier and compensated for electronically by 70-75%. Data were acquired at 20 kHz and filtered at 5 kHz prior to digitization and storage. All experimental parameters were controlled by Clampex 9.2 software (Molecular Devices) and interfaced to the electrophysiological equipment using a Digidata 1200 analog-digital interface (Molecular Devices). Voltage-dependent inward currents for HEK-NaV 1.6 cells were evoked by depolarization to test potentials between −100 mV and +60 mV from a holding potential of −70 mV followed by a voltage pre-step pulse of −120 mV (Nar 1.6).
(§1) Current densities were obtained by dividing Na^+ current (INa^+) amplitude by membrane capacitance. Current-voltage relationships were generated by plotting current density as a function of the […].
(§2) Statistics were calculated as mean and standard error of the mean (mean SEM) using Prism 7 (La Jolla, CA). The statistical significance of observed differences among groups was determined by Student's t-test or for two group comparisons significance was tested with unpaired. Electrophysiological data analysis was performed using Clampfit 9 software (Molecular Devices).
To test whether Peptide 1, 3, 7 and 8 had any modulatory effects on NaV 1.6-mediated Na^+ currents, we used whole-cell patch-clamp electrophysiology in HEK293 cells stably expressing NaV1.6 (HEK-NaV1.6) channels; each group was either treated with peptides 1, 3, 7 and 8 (500 nM from a stock solution dissolved in H2O or DMSO) or H2O and 0.1% DMSO alone (control). […] However, peptide 7 potentiates the NaV1.6-mediated transient Na^+ currents (INa+), and were not statistically different compared to control (FIG. 17 A-C and Table 1).

[3] = molecular target: T3, human NaV1.5 channel (Homo sapiens, UniProt Q14524); assay: Whole-cell patch-clamp electrophysiology in HEK293 cells stably expressing NaV1.5 (HEK-NaV1.5); conditions: HEK-NaV1.5 cells, 500 nM peptide vs control
T3 construct: expressed in transfected cells; host or cells: HEK293 cells stably expressing human NaV1.5 (G418 selection)
Description: HEK293 cells were maintained in DMEM and F-12 (Invitrogen, Carlsbad, CA), supplemented with 0.05% glucose, 0.5 mM pyruvate, 10% fetal bovine serum, 100 units/ml penicillin, and 100 μg/ml streptomycin (Invitrogen), and incubated at 37° C. with 5% CO2. HEK293 cells stably expressing the human NaV1.5 channel (hereafter referred to as HEK-NaV1.5 cells) were maintained similarly except for the addition of 500 μg/ml G418 (Invitrogen) to maintain stable NaV 1.5 expression. Cells were grown to 80-90% confluence, washed and re-plated at very low density prior to electrophysiological recordings.
as §1, §2
To test whether Peptide 1, 3, 7 and 8 had any modulatory effects on NaV 1.5-mediated Na^+ currents, we used whole-cell patch-clamp electrophysiology in HEK293 cells stably expressing NaV1.5 (HEK-NaV1.5) channels; each group was either treated with peptides 1, 3, 7 and 8 (500 nM from a stock solution dissolved in H2O or DMSO) or H2O and 0.1% DMSO alone (control).

T1 sequence (Q15858 whole entry): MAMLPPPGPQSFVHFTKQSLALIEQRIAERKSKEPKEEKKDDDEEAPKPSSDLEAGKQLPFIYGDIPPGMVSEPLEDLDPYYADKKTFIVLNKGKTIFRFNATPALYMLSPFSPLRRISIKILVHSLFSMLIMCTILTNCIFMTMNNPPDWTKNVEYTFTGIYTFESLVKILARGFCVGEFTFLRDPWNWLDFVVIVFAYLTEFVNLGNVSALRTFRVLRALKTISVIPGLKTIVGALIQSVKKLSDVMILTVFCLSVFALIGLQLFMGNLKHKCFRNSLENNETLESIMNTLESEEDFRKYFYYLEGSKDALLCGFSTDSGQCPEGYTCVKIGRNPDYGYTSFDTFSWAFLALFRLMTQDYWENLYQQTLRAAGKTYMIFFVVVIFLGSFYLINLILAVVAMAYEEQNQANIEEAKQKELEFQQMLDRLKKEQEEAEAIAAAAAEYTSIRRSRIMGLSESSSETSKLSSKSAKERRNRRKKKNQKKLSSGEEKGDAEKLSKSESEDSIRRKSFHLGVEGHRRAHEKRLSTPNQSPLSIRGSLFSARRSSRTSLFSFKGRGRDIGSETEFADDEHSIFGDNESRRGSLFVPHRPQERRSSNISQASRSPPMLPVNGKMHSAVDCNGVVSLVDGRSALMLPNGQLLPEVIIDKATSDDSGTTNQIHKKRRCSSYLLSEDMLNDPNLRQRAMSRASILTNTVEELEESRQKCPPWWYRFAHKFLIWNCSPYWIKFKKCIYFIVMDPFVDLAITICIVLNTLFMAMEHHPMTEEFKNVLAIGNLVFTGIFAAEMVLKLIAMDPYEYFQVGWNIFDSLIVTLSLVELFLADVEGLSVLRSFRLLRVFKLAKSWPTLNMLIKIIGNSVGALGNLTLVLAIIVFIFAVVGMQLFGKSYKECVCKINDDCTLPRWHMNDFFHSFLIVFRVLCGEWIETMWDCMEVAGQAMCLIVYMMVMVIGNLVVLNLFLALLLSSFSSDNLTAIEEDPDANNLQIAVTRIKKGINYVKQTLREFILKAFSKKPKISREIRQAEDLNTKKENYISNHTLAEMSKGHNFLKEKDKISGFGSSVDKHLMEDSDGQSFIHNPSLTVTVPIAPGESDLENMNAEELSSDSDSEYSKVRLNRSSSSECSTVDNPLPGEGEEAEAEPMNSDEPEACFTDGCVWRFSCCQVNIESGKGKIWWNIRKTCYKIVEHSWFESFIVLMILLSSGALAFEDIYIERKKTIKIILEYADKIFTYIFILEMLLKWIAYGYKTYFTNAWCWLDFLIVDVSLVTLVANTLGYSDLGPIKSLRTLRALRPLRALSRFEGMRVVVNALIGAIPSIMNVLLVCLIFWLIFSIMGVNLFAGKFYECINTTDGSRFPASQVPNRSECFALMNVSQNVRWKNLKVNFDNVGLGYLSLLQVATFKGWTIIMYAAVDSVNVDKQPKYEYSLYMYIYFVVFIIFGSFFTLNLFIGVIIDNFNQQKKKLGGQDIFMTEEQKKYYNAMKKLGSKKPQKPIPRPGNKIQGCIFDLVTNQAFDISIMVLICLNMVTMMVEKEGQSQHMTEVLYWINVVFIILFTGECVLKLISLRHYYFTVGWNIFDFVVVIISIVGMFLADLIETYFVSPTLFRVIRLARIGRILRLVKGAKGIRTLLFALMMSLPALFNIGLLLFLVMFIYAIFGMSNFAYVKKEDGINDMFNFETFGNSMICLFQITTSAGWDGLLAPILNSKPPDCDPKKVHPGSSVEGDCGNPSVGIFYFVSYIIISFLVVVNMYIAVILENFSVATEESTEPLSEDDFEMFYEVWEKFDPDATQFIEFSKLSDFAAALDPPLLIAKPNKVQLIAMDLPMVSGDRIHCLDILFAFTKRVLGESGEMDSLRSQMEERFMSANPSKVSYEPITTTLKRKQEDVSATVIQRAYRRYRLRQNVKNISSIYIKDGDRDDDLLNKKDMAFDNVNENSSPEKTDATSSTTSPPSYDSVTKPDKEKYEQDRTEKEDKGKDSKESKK
T2 sequence (Q9UQD0 whole entry): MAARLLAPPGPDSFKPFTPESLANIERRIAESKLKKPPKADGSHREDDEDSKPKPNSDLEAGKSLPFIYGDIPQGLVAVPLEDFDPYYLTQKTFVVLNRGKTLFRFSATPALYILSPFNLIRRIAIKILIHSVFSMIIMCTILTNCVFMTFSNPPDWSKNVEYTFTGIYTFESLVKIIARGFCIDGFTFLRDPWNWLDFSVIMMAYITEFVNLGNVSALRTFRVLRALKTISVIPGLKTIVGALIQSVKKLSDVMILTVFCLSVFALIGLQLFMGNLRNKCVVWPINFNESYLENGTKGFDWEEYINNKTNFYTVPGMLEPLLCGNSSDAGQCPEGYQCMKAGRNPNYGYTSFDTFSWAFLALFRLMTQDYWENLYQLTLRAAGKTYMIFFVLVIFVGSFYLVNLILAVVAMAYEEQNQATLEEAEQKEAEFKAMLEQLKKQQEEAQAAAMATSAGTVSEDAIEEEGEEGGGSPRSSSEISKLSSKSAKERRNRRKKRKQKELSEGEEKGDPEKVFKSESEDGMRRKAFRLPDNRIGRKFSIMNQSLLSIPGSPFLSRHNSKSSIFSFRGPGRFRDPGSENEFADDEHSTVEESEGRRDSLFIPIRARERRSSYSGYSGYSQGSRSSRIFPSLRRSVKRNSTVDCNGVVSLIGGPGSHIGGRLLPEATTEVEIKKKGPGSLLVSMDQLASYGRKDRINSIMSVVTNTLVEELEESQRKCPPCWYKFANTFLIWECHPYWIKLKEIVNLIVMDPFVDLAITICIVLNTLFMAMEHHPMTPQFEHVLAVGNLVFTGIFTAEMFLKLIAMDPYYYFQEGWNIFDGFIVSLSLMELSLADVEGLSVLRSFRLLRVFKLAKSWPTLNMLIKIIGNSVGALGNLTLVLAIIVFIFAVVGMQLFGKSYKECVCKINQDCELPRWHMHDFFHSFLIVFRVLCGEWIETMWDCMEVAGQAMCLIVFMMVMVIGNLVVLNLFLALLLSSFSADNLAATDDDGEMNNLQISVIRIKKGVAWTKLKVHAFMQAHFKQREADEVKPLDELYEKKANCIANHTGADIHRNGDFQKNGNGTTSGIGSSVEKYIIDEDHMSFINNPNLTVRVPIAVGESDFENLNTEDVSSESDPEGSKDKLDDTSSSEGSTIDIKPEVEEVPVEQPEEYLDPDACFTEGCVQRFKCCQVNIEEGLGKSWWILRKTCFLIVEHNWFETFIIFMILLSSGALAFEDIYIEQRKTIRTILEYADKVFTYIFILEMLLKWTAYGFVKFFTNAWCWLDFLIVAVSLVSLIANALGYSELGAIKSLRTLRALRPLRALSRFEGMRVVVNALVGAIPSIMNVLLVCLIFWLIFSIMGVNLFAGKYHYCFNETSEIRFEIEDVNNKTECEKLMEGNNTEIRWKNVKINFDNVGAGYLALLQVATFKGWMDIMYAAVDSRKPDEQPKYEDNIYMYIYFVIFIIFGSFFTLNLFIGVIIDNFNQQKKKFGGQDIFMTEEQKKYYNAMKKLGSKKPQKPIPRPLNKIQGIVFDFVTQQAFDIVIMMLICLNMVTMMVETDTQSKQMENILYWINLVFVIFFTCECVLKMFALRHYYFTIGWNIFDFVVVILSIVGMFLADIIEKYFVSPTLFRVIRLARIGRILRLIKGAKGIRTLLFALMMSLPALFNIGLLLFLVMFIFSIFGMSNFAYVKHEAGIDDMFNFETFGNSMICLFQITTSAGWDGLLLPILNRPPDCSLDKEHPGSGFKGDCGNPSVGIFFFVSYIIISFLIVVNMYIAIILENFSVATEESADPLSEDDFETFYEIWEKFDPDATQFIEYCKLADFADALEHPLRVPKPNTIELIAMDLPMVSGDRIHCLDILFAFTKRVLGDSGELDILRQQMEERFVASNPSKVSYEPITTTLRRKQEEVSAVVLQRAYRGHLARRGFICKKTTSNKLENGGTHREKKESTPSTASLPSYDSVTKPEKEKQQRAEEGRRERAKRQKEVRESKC

Sequence | blockage of the NaV1.7 sodium channel [1] | peak current density, treatment (text of b104) ([2]; 500 nM peptide, control 194.86, n=8, treatment n=7, sentence cites FIG. 14A-C) | effect on NaV1.6 currents [2] | effect on NaV1.6 currents ([2]; listed as peptide 8) | Peak current density, Nav1.6 (Treatment) ([2]; 500 nM peptide) | effect on NaV1.5 currents [3] | effect on NaV1.6 currents ([2]; listed as peptide 3) | effect on NaV1.6 currents ([2]; listed as peptide 1)
DCLGFMRKCLSTTDLDDDWNCCRPNLVCSRTHKWCKYVF (Synthetic Peptide 8) | substantial blockage | 104.78 | no effects | no statistically significant effect | 59.75 ± 5.4 (6)^NS | no effects |  | 
DCLGLFRKCIPDMLKCCRFNLVCSRLHKWCKYVF (Synthetic Peptide 3) | substantial blockage |  | suppressed |  | 25.32 ± 4.1 (6)^b | suppressed | suppresses | 
IGEKVTIRLITSTNINDDFNIYQQKPGEPPKLL (Synthetic Peptide 7) | substantial blockage |  | potentiates |  | 121.14 ± 16.6 (10)^c | no effects |  | 
SDEIPATFGGGTDAGL (Synthetic Peptide 1) | substantial blockage |  | suppressed |  | 25.65 ± 5.2 (13)^a | no effects |  | suppresses
